Where a chain is given by its changes, count along the chain named. Names and notes keep the numbering of the source.
B1: 13B8.2 Fab fragment (Fab, V domains shown)
VH: QVQLKQSGPGLVQPSQSLSITCTVSGFSLTTFGVHWVRQSPGKGLEWLGVIWRSGITDYNVPFMSRLSITKDNSKSQVFFKLNSLQPDDTAIYYCAKNDPGTGFAYWGQGTLVTVSA
VL: DIQMTQSPASLSASVGETVTFTCRASEMIYSYLAWYQQKQGKSPQLLVHDAKTLAEGVPSRFSGGGSGTQFSLKINTLQPEDFGTYYCQHHYGNPPTFGGGTKLEIKR
notes: Chimeric Fab expressed in the periplasm of E. coli; In the staining it was used as a monomer or multimerized on Strep-Tactin PE; also called CD4 wt (13B8.2); 13B8.2 wildtype (wt) Fab fragment
B2: mutant 13B8.2 Fab fragment, CD4 mutant 1 (F100A) (Fab, V domains shown)
VH: B1 VH with F104A
VL: B1 VL
notes: also called Fab mutant 1; F100K-H
B3: mutant 13B8.2 Fab fragment, CD4 mutant 2 (Y92A) (Fab, V domains shown)
VH: B1 VH
VL: B1 VL with Y92A
notes: also called Fab mutant 2; Y92-L
B4: mutant 13B8.2 Fab fragment, CD4 mutant 3 (H35A) (Fab, V domains shown)
VH: B1 VH with H35A
VL: B1 VL
notes: also called Fab mutant 3; H35-H

What was measured:
[1] = biological target: T1, CD4 (cell surface receptor molecule on PBMCs) (human, UniProt P01730 26-458); assay: flow cytometry on PBMCs, Fab multimerized on Strep-Tactin PE
T1 construct: whole, on cells; also called CD4 receptor molecule
Experimental: For staining of a CD4 receptor molecule specific target cell population in a mixture of cells, Strep-Tactin® labeled with phycoerythrine as a fluorescent label (IBA GmbH, Göttingen, Germany) was used as multimerization reagent together with the monomeric CD4 binding Fab-One-STrEP fragment of the variants of the antibody 13B8.2 (that served as receptor binding reagent) as described below. For FACS analysis 5×10⁶ PBMCs were incubated with Fab multimers consisting of 0.2 μg Fab-fragment (comprising binding site B) equipped with the One-STrEP-tag (binding partner C) as receptor binding reagent and 0.75 μg Strep-Tactin® PE (IBA GmbH, Göttingen, Germany) as multimerization reagent using the protocol below. In addition, after FACS separation, the multivalent complexes were disrupted in a portion of each of the stained cells by addition of biotin as described below. […]
For staining and dissociation experiments, 5×10⁶ PBMCs were incubated with the respective anti-CD4 Fab-multimer-Strep-Tactin® PE complexes or with the corresponding Fab-monomers (the latter not complexed with Strep-Tactin® PE). […] As expected from the monomer staining experiments, no remaining Fab monomers could be detected for mutants 2, 3 and 4, whereas substantial residual cell surface bound Fab of the wild-type and mutant 1 variants was observed.

[2] = biological target: T1, CD4 (cell surface receptor molecule on …); assay: flow cytometry on PBMCs, Fab multimerized on Strep-Tactin PE (before the Western blot experiment)
Experimental: CD4 Fab-multimers were generated with the different anti-CD4 Fab-mutants listed in Table 1 and further specified in FIG. 2 and Strep-Tactin® PE (IBA GmbH, Göttingen, Germany). PBMCs were incubated with the different CD4 Fab-multimers and consistent cell staining in each sample was verified by flow cytometry (solid line compared to the tinted histogram representing unstained cells). Then, cells were treated with D-biotin and subsequently washed. Finally, washed cells were lysed, and the soluble (S) and insoluble (I) fractions were analyzed for remaining Fab-monomers using highly specific anti-Strep-Tag® antibodies (StrepMAB-Classic Horse Radish Peroxidase (HRP) conjugate; IBA GmbH, Göttingen, Germany). To control application of consistent amounts of insoluble cell material, β-actin was detected simultaneously with a primary antibody against β-actin from rabbit (Santa Cruz Biotechnology Inc., Santa Cruz, USA) and a secondary antibody against rabbit Ig (immunoglobulin) conjugated to HRP (Sigma, St. Louis, USA). […]

Binder	binding result [1]	binding result [2]
B1	binds	–
B2	binds	–
B3	–	binds
B4	–	binds

Source: patent US20150301046A1 (published 2015)
